Laboratory results: PMC2172957

Biological target: neuronal receptor for agrin (mouse (endogenous in cortical neurons))
Assay: immunostaining of cells or tissue

reduction of C-Ag20z8 labeling at a 1:1 molar ratio of C-Ag20z8 to rC-Ag (y4z8): 30%
Substance: rC-Ag_(y4z8), soluble 95-kD COOH-terminal fragment of rat agrin (domain or fragment)
